Experiment [1] has as its target T1, PAR1 binding to GST-PH-Etk/Bmx (Homo sapiens, UniProt P51813).
T1 construct: made in house; host or cells: Escherichia coli (general statement on GST fusion proteins)
T1 sequence (P51813 4-111 limits assumed): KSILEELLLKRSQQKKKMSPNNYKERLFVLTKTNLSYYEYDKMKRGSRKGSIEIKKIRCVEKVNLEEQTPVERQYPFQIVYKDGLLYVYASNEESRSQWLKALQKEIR
The experiment is described as follows: Peptide competition for binding of PAR1 cell lysates to GST-PH-Etk/Bmx. The conditions noted are these: 1-1000 nM applied peptide; Western blot, FIG. 7B/7C. The procedure:
GST fusion protein columns. Fusion proteins were purified from transformed Escherichia coli bacteria that had been stimulated with isopropyl-β-D-thio-galactopyranoside (IPTG) at a concentration of […]. Bacteria were lysed according to published procedures, and then immobilized on glutathione Sepharose beads (Pharmacia). Briefly, MDA-MB-435 cell lysates were applied to GST-PAR1 C-tail or GST control columns. After 2 h binding periods to the designated protein/s cell lysates to the columns, a washing step was performed. The washes (×3) were carried out using a “wash buffer” including: 100 mM NaCL, 20 mM EDTA, 10 mM Tris, pH 8.0 and 1% Triton ×100. This step was performed in order to wash out all non-specific proteins, leaving the GST-PAR1-C-tail column firmly bound to targeted cell lysate proteins. Next, elution of bound proteins was performed via the addition of gel “sample buffer” and appropriate boiling. The samples were run electrophoretically on SDS-PAGE gels, followed by immunoblotting with the indicated antibodies and ECL detection.
GST-PH-Etk/Bmx. The PH domain in Etk/Bmx was bound to GST column as previously described (Chen R, et al. (2001) Nat Cell Biol. 3: 439-444). Purification of PAR1 C-tail fragments. PAR1 C-tail fragments were generated using a “thrombin cleavage capture kit” (Novagen, Madison, Wis.; Cat no. 69022-3). The enzyme used for the cleavage was biotinylated human thrombin. Briefly, the cleavage was performed according to the manufacturer instructions. Biotinylated thrombin was removed from the cleavage reaction using streptavidin agarose beads, and the cleaved peptides (e.g., wt PAR1-C-tail and Y38 1A C-tail) were isolated and loaded on a GST-Etk-PH column. After incubation for 4 h the purified fragments were applied onto the GST-PH-Etk/Bmx column and detected following gel separation and western blotting analysis using anti-PAR1 antibodies (ATAP, Santa Cruz, Calif. ).
Identification of PAR1-Etk/Bmx binding region: functional consequences. […]

Experiment [2] deals with T2, association between Etk/Bmx and PAR1-C-tail (Homo sapiens, UniProt P51813).
T2 construct: expressed in transfected cells
T2 sequence (P51813 1-675): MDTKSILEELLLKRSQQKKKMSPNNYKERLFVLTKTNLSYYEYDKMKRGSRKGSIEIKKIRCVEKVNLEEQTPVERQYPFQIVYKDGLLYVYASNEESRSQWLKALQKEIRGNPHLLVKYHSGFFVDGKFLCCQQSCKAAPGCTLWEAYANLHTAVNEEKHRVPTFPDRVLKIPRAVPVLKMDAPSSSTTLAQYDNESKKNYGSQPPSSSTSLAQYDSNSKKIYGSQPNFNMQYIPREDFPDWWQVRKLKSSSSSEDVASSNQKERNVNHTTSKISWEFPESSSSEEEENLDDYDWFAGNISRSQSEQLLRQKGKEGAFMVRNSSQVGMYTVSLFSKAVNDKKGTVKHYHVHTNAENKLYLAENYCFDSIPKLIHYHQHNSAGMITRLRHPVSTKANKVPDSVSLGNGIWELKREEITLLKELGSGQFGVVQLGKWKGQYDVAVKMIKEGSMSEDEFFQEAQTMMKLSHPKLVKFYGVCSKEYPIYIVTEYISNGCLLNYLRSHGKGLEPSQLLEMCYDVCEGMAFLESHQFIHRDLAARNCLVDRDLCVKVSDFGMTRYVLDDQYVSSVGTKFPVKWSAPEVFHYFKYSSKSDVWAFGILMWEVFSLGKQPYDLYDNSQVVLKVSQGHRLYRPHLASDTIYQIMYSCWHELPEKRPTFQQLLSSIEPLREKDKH
The experiment is described as follows: Competition experiment: co-immunoprecipitation of HA-PAR1 and T7-tagged Etk/Bmx in MCF7 clones. The conditions noted are these: 20 minutes after activation by thrombin or TFLLRN, IP anti-HA, blot anti-T7, FIG. 22. In kind it is cell-based. The procedure:
Western blot and immunoprecipitation analysis: Cells were activated with agonist peptide TFLLRNPNDK (SEQ ID NO: 35) for the indicated periods of time and solubilized in lysis buffer containing 10 mM Tris-HCl, pH 7.4, 150 mM NaCl, 1 mM EDTA, 1% TritonX-100, and protease inhibitors ([…] aprotinin, 1 mM phenylmethylsulfonylfluoride, and […] leupeptin) at 4° C. for 30 min. The cell lysates were subjected to centrifugation at 12,000 rpm at 4° C. for 20 min. We used 400 μg of the supernatants with anti-PAR1 (ATAP, Santa Cruz, Calif. 1 μg), anti-HA (anti-HA sc-7392; Santa Cruz, Calif.), anti-Shc or Etk/Bmx antibodies (10 μg/ml). After overnight incubation, Protein A-Sepharose beads (Amersham Pharmacia Biotech, Buckinghamshire, UK) were added to the suspension (50 μl ), which was rotated at 4° C. for 1 h. The immunocomplexes were eluted and run electrophoretically on a 10% SDS-PAGE gel, followed by transfer to an Immobilon-P membrane (Millipore). Membranes were blocked and probed with 1 μg/ml amounts of the appropriate antibodies as follows: anti-PAR1 thrombin receptor mAb, (ATAP, from Santa Cruz, 1:1000); anti-Shc (BD, 1:2000); anti-Bmx (Transduction Laboratories, 1:1000) or anti-PY (Upstate 4G10, 1:2500), suspended in 3% BSA in 10 mM Tris-HCl, pH 7.5, 100 mM NaCl, and 0.5% Tween-20. […] Immunoreactive bands were detected by enhanced chemiluminescence (ECL). […]

The test system of another experiment is MDA-MB-435 cells. The experiment is described as follows: Wound assay (cell migration) in MDA-MB-435 cell monolayer. The conditions noted are these: MDA-MB-435 monolayer, 24 h, PAR1 activation; compared to control untreated cells; FIG. 9D. Type of experiment: cell-based, human. The method, then:
In a parallel experiment, a wound assay for determining the rate of cell migration, showing the ability of the cells to fill in gaps in an MDA-MB-435 cell monolayer, was performed. MDA-MB-435 cell monolayer expressing endogenous Etk/Bmx was scratched to introduce an equal gap-area under the following conditions: control untreated cells, TFLLRNPNDK-activated or SiRNA-Etk/Bmx and TFLLRNPNDK-activated. […] Similar inhibition was obtained in the presence of the PAR1 antagonist, SCH 79797 (FIG. 9D, bottom panel), pointing to the important role of both PAR1 and Etk/Bmx in wound closure/migration of PAR1-activated MDA-MB-435 cells.

Turning to “peptide 4: 18-amino-acid peptide encompassing residues 375-392 of PAR1 C-tail (SSECQRYVYSILCCKESS; UniProt P25116 375-392, looked up, fragment)”, the “competition for the binding of PAR1 cell lysates to GST-PH-Etk/Bmx” value (“competition … to GST-PH-Etk/Bmx” below) in experiment [1] is “dose-dependent inhibition”.

In the case of “peptide 5: peptide representing PAR1 C-tail 387-400 (CCKESSDPSSYNSS; UniProt P25116 387-400, looked up, fragment)”, in experiment [1], the “competition … to GST-PH-Etk/Bmx” value was “did not compete”.

On to “SSECQRYVYSIL (listed as Homo sapiens) [NH2-SSECQRYVYSIL-COOH]”, for which, in experiment [2], the “association between Etk/Bmx and PAR1-C-tail in the presence of the peptide” value is listed as “No binding is observed”.

As to “residues 393-412: peptide representing PAR1 C-tail residues 393-412 (DPSSYNSSGQLMASKMDTCS; UniProt P25116 393-412, looked up, fragment)”, in experiment [1], the “competition … to GST-PH-Etk/Bmx” value is “did not compete”.

Take TFLLRNPNDK (listed as Homo sapiens): the “closure of the wound / migration” value with MDA-MB-435 cells is on record as “Rapid closure of the wound”.

Regarding `CC(C)c1ccc(Cn2ccc3c4c(N)nc(NC5CC5)nc4ccc32)cc1` [SCH79797], the “closure of the wound / migration” value with MDA-MB-435 cells was “attenuated wound closure”.

Source of the values: patent US10611798B2, “PAR1 and PAR2 c-tail peptides and peptide mimetics” (Hadasit Medical Research Services and Development Ltd., priority 2010, dated 2020).
